The target of this series is T1, r-YycF (His-GB1-YycF) (Staphylococcus epidermidis (1457?)) (UniProt Q8CQK0).
T1 sequence: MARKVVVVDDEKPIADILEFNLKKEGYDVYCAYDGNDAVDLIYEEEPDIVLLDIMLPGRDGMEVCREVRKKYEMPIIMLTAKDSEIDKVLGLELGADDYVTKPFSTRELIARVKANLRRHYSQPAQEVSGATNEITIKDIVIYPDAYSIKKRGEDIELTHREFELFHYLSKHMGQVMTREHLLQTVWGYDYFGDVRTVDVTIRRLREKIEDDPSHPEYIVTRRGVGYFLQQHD
As to the kind of experiment: EMSA. Conditions: EMSA: 20 nM DNA, 10 mM Tris pH 8.0, 25 mM KCl, 1 mM EDTA, 2.5 mM MgCl2, 5% glycerol, 37 C 30 min; footprinting: 200 ng probe, binding at 30 C 30 min, DNase I ….
Take “TTACAAACCCCGTCATATCTAGGACTAACAGACCTCAATTATATAAATAAGTAATTTTTTTTGAACATACTCTTGTAAATATTGTGTAATAAACTAAAATTATTGGTAAGCCCTACATTTGTAGTATTAGGAGGTCAAAAAAAGTGTCAAAATTTAAGTCTTTGCTTCTATTATTTGGCA (double strand) [qoxB promoter 180 bp]”: the binding entry is “binds”.

“CATCTATTCATTCAATCAAGTATTTTTATTCTTTATAAAACTATGTTAGCAAATTAAATTTTAATACACGTTTCATTAATTCAAATCCCATTCTTAACAAAAAATTTACAATAACTCTATTTTGATTTAATAAAAGATATGTAACATGAGAACTGTAAGAAATACATAT (double strand) [pstS promoter 167 bp]”: the binding entry is “binds”.

With “ATGATAGGAATCATTACGGTTATTCATAAAAATTAGCATCCTATTTCATGTAATTGTAGTGTAAAAAATAGGCGTTTATTTTTATTTCAGTGTAACCTGCACG (double strand) [sceD promoter 103 bp]”, the binding entry is given as “binds”.

With “TTCTAAAATCTCCCCCTTATTCAATTTTCTAAAAATATATTACAGAAAAATTAAGTTAAAATTACAAATATTACTGTTTCAGTATAACAACATTCTATTGCAAATTGAAATACTTTCGATTAGCATATGCTTTACAACCTAACTAACGAAAGGTAGGTGAAAAA (double strand) [ica intergenic region (icaR-icaA)]”, the binding result was “binds”.

As for “ATAATGCTAGAGGGACTTTTTCTAAAGACAGTCTACTTATTCGACTATCTATTAAGGTGGTTCATGGTAAAATGATACTAGTTTCATAACAAATCATTTACAATTTTGAATTACATCTTTAGAAATACGAGTTAATTGTTTAAGATGTAGCGTGAGGTG (double strand) [arlR promoter 159 bp]”, the binding entry was “binds”.

With “AAACTAAATTGACCATCACTTAACTAGGTGCTCTGTTAAACTTTTGTTATAAATTAAAGATAGAAGCAACCTATTCATATAAAGTGGTATCTCTTGACAATTTTACTCGTTTATAAGATGTTATAATTATGTAGTGTATAAGGAGGCATA (double strand) [rpsA promoter 150 bp]”, the binding result is recorded as “binds”.

As to “TGATTTTATCGCTCATCATTTTTAATAAGATTATGAGACACTTATGTAAAAATTTAATATCTAGTTTGTTAAGAATTTGTAAATAGAATTGTGGTTATGTAAATTTTGTGATATTTTCAAGTAGGGACAAAACTGGATGTTGGCGAACATCAATAAATGATTACTATATATTAAATTTACACAATTTTTACAATATAAGAATTGCTAGTTACTTTTTATAATAATTGTAAATCAGTTCCTCAACCACTT (double strand) [pitR promoter 249 bp]”, the binding entry is given as “binds”.

In the case of “CACATTGCTATGTTAATTATTATCAAAAAGAATTTTCAGTAATTTTACATTCATGTAACAGTGTTTGTGTTGCTCAAAATAAAATACTTTAAAAAAGCTGAGCGTATCATTTCTATTCATATTACATAAATTAATTGGGTTAAATGAGATTGTGTAACAATATTAGCAAAAAATTACAAATCAATAACAATGCACACAAACATCAATTTTTCTGTTAGAGTATGGCTTGTCG (double strand) [ssaA1 promoter 232 bp]”, the binding entry was “binds”.

Turning to “ATTATTCAAATGCTTGTAGTTTTATAAGTCGCATTATTATTTTTAAATATTTTCACTATTGAATGGATTTTGATCTTCTTTATAAAAAATAAATAAAAGGTTTAAAGTTAAATAAAATTTAAAAAATAATAATTTATACAAAATGATATTTTTTTTAATCATAAATAATATGTAAAGTATTGCGTTAAAATGTAAAAGAAGGTAACATTACATACTAGATACATAAAATATATGTATCTTACATTTAAAATTAAATACATGGGAGGTATAAT (double strand) [aap promoter]”, the binding result is recorded as “binds”.

Turning to “CACGATTTTAGTATTGTCTTCAAAAAATCTTAGTATTTGCTATATATTATGTTAATACATGTATATCTTAGCATTATTTAAATAAGGAATGAATTATTTAAAGGTGAGCGCAACAAAATTTTAAGTATATTTTAACACTACCTTAACAGTCTTTAATGAATGATTTTATCACTATCTAATAGAACGTG (double strand) [murE promoter 188 bp]”, the binding result is on record as “binds”.
